Target: Bio-SAP97 (SAP97 with N-terminal tag for in vivo biotinylation) (UniProt Q62696)
Assay: pull-down; streptavidin-sepharose pull-down of biotin-tagged SAP97 or PSD-95 from Triton X-100 extracts (TNE buffer, pH 7.5, 120 mM NaCl, 4°C) of co-transfected HEK293 or HEK293T cells; western blot

Sequence of UniProt Q62696 (Q62696 whole entry): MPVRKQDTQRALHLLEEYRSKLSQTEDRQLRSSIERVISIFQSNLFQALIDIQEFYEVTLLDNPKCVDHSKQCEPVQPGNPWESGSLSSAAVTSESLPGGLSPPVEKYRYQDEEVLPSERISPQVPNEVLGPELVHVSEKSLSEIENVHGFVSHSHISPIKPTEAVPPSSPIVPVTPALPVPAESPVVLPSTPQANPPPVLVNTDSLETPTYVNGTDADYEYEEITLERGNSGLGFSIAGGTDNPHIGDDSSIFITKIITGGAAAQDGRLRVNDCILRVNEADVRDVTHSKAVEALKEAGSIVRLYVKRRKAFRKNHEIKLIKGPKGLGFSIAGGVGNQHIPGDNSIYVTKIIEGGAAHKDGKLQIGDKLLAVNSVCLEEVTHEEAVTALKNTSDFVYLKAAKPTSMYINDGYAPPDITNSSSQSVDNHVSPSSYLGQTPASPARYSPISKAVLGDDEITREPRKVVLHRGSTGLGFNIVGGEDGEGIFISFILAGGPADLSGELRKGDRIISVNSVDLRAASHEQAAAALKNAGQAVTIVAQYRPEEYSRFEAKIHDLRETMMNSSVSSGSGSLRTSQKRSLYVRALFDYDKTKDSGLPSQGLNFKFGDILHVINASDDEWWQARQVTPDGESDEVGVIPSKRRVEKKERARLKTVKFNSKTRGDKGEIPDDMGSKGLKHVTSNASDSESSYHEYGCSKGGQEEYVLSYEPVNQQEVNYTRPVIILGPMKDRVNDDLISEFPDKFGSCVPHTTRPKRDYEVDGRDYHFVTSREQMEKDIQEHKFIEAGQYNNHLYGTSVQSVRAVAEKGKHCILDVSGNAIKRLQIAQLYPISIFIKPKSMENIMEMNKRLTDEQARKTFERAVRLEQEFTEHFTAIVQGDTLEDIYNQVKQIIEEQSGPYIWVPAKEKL

Substance: N-terminally GFP-tagged GluA1 C893S mutant (receptor)
- percent decrease in association against wt GluA1: 60 to 70%
